Reference: the DeepSol protein solubility set

Assay: soluble on expression in E. coli; label from the status in PepcDB or PDB records

In the case of “MSLTLEDIARKLNISKNAVSLALANKPGVSEKTRQLVFQTAKELGYKFKEKEEQKGTIALIMTKNIIEDPYFFSAIVYSVENEIRKEGYDFSLYCISSEDEWNIEEILTSSSFEGIIIVSAISENVIKKIEEKKIPTVVIDNLVDSTCIDTVNTDNYRSTKAAIEYLIKQGFKHIGFIGDVNHAISYRERWEGFMAAHEEFDIEIDKKVCKIEGFKDFSKNPEPEIQAFLKSLEKMPQAFFCVSDLSTLLTASVLKEMGFQIPKDVSIVGFDDIELVKHFKPALSMIHIDRNYYGQRAVKQLLERIKCPNKPVEDVRIFCRLNIRKSIRAEGHHHHHH”, the “soluble on expression in E. coli” value is reported as “not soluble”.
In the case of “MGSDKIHHHHHHMTQVIPPRCDTCACDDADWCHLQETTKLLLLATAQIELSLTDGDHNVTGLGQLFTQMAGHLTEVNRHLHGTADTPAAILAHSDSLMQAIDSGVMAFQFYDRISQRLNHVITALSLMEAMLGDEQRRHSQAAWTNLQGEIQAHYSLDCERQMFAALLEGVPIHEALNAYRETHLHQTKQDVELF”, the “soluble on expression in E. coli” value is reported as “not soluble”.
For “MIEFRDVWFWYQEGKTVLKSISFSFSEGTLAIVGPNGSGKTTLVKMLNGLLKPKKGNVLIDGINTKEVSVAELSRIVGYVFQNPDAMFFEENVFKEVAFGPKNLGLNEEEVKKRVRWALEAVGLRGFENRNPFELSGGEKQRLAIACILAMKPKYLVLDEPNTGLDERGLQDLINVIKNLRREGSSIILVTHDIELVLEVADKVLLLKDGELKFFGSTKEFFELDLEGFGLKEPELVKISKDVGINFVRNVEELLKVIGL”, the “soluble on expression in E. coli” value was “soluble”.
In the case of “MKAIILAGGQSERFGEPKAFAQINAQPFYKRIIDVLEGTNMFNQIIISTNETLASQFDHSDIIIDEDQNKDKGPLAGIQSVIQHYESEELFFVVSVDTPMISQKAVSKLYQFMVEHLIEDQLDIAGFKEKGRPIPTIAFYSPHTLPYIDDALNSNDYSLKSVYNKVKSDWLDVNLIESPDYWYKNINYQQDLDSLQQDILNR”, the “soluble on expression in E. coli” value is reported as “not soluble”.
For “MGSDKIHHHHHHMDPTTMPAPAPINYSQTWTFFEGEWHDGNVPIMGPRTHAAWLGSMVFDGARAFEGVTPDLDQHLARINWSATNFKLNALVDKATWLGLVQDGLKRFAGNAELYIRPMYWAQNGVGGGVLFDPDTTNWCLCIYEAPMPKPTGLSITLSPFRRPTAECAPVEAKAGCLYPNNSRAMMEAKSRGFDNCLLRDMLGHIAELGNSNIFMAKDGVVYTPAANGTFLSGITRQRVIELLRGDGITVLETSLSYRDFETADEIFASGNFAKVQPIIRIDDRSLQPGPFYAKARKLYWEFAHG”, the “soluble on expression in E. coli” value was “not soluble”.
In the case of “MGSDKIHHHHHHMKRGLNLDQWVTWPGEDQWGDAKTILPYPEWRKFLGDDDLRALKGAGFDFLRMPVDPSPFLSDQTAALRDDLYASVLDSVRMINRAGLKVIVDMHLIPAGGSRKIGMAQVMDDPRTFDRYLDMVRKMARTLAGEDPEKVAFEPMNEPIVDCDSDGTSLWPDRQRELFAAARSSATKLTLVLTGACYSAASSLEKIDPKAISDDNVIWTFHSYDPFLLTHQGATWAGDFIPYVTGLPYPLNAVPKAQLDATLDIIRARIKAEAPWTRQSGLLAYLDEQVASMDSPDKLLGLMDAPFKKVEAWAKANGVKPENITLGEFGMIRQEYGNAYVMPAQYRAAYVRDMIARAEAHGFSWSVWSYGGAFGIVDAFNGDKGEPDVMDVIRSLH”, the “soluble on expression in E. coli” value is reported as “not soluble”.
For “MAHHHHHHMGTLEAQTQGPGSMRRVVVTGMGIVSSIGSNTEEVTASLREAKSGISRAEEYAELGFRCQVHGAPDIDIESLVDRRAMRFHGRGTAWNHIAMDQAIADAGLTEEEVSNERTGIIMGSGGPSTRTIVDSADITREKGPKRVGPFAVPKAMSSTASATLATFFKIKGINYSISSACATSNHCIGNAYEMIQYGKQDRMFAGGCEDLDWTLSVLFDAMGAMSSKYNDTPSTASRAYDKNRDGFVIAGGAGVLVLEDLETALARGAKIYGEIVGYGATSDGYDMVAPSGEGAIRCMKMALSTVTSKIDYINPHATSTPAGDAPEIEAIRQIFGAGDVCPPIAATKSLTGHSLGATGVQEAIYSLLMMQNNFICESAHIEELDPAFADMPIVRKRIDNVQLNTVLSNSFGFGGTNATLVFQRYQG”, the “soluble on expression in E. coli” value was “soluble”.
With “MRTAVIIPFYQREAGILSRALDSVDGQILPEGHSLTVFVIDDESPVSARSEVEGRQGKVPVRLIAQKNGGPGAARNAGLDAVAAEGFDHVAFLDSDDIWQPTHLADALDLLARGYDFHFCDHQRTDDDITYFERTPALRRMREERHAGVTVLDAEAPILAFDQPSIMAASVDTYLSQTSTVVVRQSFVETLRFDPRLRNAGEDQLFWLSLIAAGARTVVSWKMNVLCGRGVNVYFDAFDWKSTKVVDRTGYMLMFFHTVGRRLSLTASDRRTVADRIRRYRRAYSYLFLRALLQGRVPTLSLTWKLAALDPGLVPAMPLRFLAVLPNREAESLQWLEHHHHHH” the “soluble on expression in E. coli” value was “not soluble”.
For “PREQIIRLHASSGTTGKPTVVGYTANDISNWADLVARSLRAAGLRKGDMIHNAYGYGLFTGGLGAHYGIERLGATVVPMSGGQTEKQVGLITDFKPTGIMVTPSYMLNILEQYHKVGMDPRESSLQVGVFGAEPWTDAMRREVEEAFDMHAVDIYGLSEIMGPGVANECVETKDGPVI”, the “soluble on expression in E. coli” value was “not soluble”.
In the case of “YQNYGIMAAIDHINALKDLVKRFPKFADLPKIYGGGSYGGYLSLLIAKIAPWYVDGVIDNSGVCLPFLACILGREMNQGEFYFEGSGYRLYCFVYKYWNRNMNSSYYFGDENYLIRAVLNSNHLQIQSNLNKNTIFVSYHSIQDMGAPVQNKIELYKCYQELGYDATLHLIKDEN”, the “soluble on expression in E. coli” value is reported as “not soluble”.
For “MSLFARQLQSLTASGIRTQQVRLASTEVSFHTKPCKLHKLDNGPNTSVTLNREDALKYYRDMQVIRRMESAAGNLYKEKKIRGFCHLYSGQEACAVGMKAAMTEGDAVITAYRCHGWTWLLGATVTEVLAELTGRVAGNVHGKGGSMHMYTKNFYGGNGIVGAQQPLGAGVALAMKYREQKNVCVTLYGDGAANQGQLFEATNMAKLWDLPVLFVCENNGFGMGTTAERSSASTEYYTRGDYVPGIWVDGMDILAVREATKWAKEYCDSGKGPLMMEMATYRYHGHSMSDPGTSYRTREEIQEVRKTRDPITGFKDRIITSSLATEEELKAIDKEVRKEVDEALKIATSDGVLPPEALYADIYHNTPAQEIRGATIDETIVQPFKTSADVLKSIGRA”, the “soluble on expression in E. coli” value was “not soluble”.
With “MHADLVIVGAGMVGSALALALEGSGLEVLLVDGGSLDVAPFKPEAPYEPRVSALSEASRRILQRLHAWDGIVARRAEPYREMQVWDGSGTGRIGFSAASVHAEVLGHIVENRVVQDALLERLHDSTTGLLANARLEQMRHSGDDWLLTLADGRQLRAPLVVAADGANSAVRRLAGCATREWDYLHHAIVTSVRCENAHRATAWQRFTDDGPLAFLPLPDRGDEHWCSIVWSTTPEQAERLMALDEDGFRAALGEAFEQRLGAILHADRRLCIPLRQRHAKRYVEPGLALVGDAAHTIHPLAGQGVNLGFLDAAVLSEVLLHALERGERLADERVLSRFERRRMPHNLGMMTAMEGFERLFQADRLPLRWLRNAGLRLVDGHHEAKALFVRQALGLSGDLPMLARVLEHHHHHH” the “soluble on expression in E. coli” value was “soluble”.
In the case of “MAHHHHHHMPSLNNNTIREDVIFKRRVKDVLLRHGGTGGLVKVLIDFNAREAVAARQQRQTTSTDSGSSRTDVGLSHAQLLLFLQDYGVELTPFEAAYLCRAFDDHGSGFISGETFTRHLTGLNERRLRAVKKAWQSLERRNGASGKVSRELLLSTFAAVAAERAHAAAGDPGNPADGAAHDAIATTSFSSPVGGALQSTFGGGHGMHEHLKEAYMTSMMGRGSGFMAKPNAAAGGADGESGEAADRVSYAEYLAFYAGVSPQFATDEAFVTHVLQSWAADDAARPALDETAREWGPDGDPLALDGPRYVKEALNLELGISSKSYNYSHMQREHPYVEPLPPLNRPDIMATTMQRTYVPFDKAAQMLADPLVTRRGQSK”, the “soluble on expression in E. coli” value is reported as “not soluble”.
For “SLIENSHVKKDDIWPSGGQMTVKDLTAKYTEGGNAILENISFSISPGQRVGLLGRTGSGKSTLLSAFLRLLNTEGEIQIDGVSWDSITLEQWRKAFGVIPQKVFIFSGTFRKNLDPNAAHSDQEIWKVADEVGLRSVIEQFPGKLDFVLVDGGCVLSHGHKQLMCLARSVLSKAKILLLDEPSAHLDPVTYQIIRRTLKQAFADCTVILCEARIEAMLECDQFLVIEENKVRQYDSIQKLLNERSLFRQAISPSDRVKLFPHRNSSKCKSKPQIERETLVTMENVTAFWEEGGTPVLKDINFKIERGQLLAVAGSTGAGKTSLLMMIMGELEPSEGKIKHSGRISFCSQNSWIMPGTIKENIIFGVSYDEYRYRSVIKACQLEEDISKFAEKDNIVLGEGGITLSGGQRARISLARAVYKDADLYLLDSPFGYLDVLTEKEIFESCVCKLMANKTRILVTSKMEHLKKADKILILHEGSSYFYGTFSELQNLRPDFSSKLMG”, the “soluble on expression in E. coli” value was “soluble”.
For “MSLKKRRTIGFLVNDIDVSYSNLVYLMTKKAAEKYDCNLIVYEGRSFNNPSMADSQHQISYSFVDNTRLDGIIITSATIACFISDEEFVEFCKRYEGIPLVSLGIVVPHATSILVDNKPGMKSQVEHLIKDHGFKKIVYISGPPTNTDSVERLEAYCEALRENDIEVDDGLIFYGDFMAQSGYDIIKEIIKNGIEYDAVVCANDEMAFGAIKGIRDLKDAYNLDLTQKGVICGFDDSITSRLVKPSLTTVRQPIEEMCFYAVEAILKKIEGEKVEDVVKLPSVLVKRESCGEGHHHHHH”, the “soluble on expression in E. coli” value was “soluble”.
With “MSDQPIVLTSFYPKEGGARDKILLDGKNFGTDVSKIKVYFNNARASVVSSSGSRIYAIVPRLPGDNPRISVVVDTDSVAYEETYAYHTQALVSTVTGNGETSFLAGTLSTAQVYGKYLDLDAEGNLFMSWRDGGTFGIARINEQQNIVTPLIEADAANRILYANGLTVDRATGMLTAAHESVKEVTFTFDPREAWYPRQRNIKYSQSDLNSIVDADRYKNFVTFCPYDGYLYTRYRDGKIAKIDPNTFEGHIIHQGPSGSQYGQAINPAKPWLLYITLHSNAPTAYRQGISVLDLRDPDGTGGFKRLNAPGGSAFRDGPIEDALFNYPKDIKFDNDGNMFVADYGNHCIRMISADNIVTTVAGQPGVAGYKDGGPVESLFKNPWGVAVNEQGDIYIADWGNARIRKLVIELEHHHHHH” the “soluble on expression in E. coli” value was “soluble”.
For “MVIEMEPDTHIISALVEHKPGVLQRVAGLFTRRGFNIENITVGESETPGIARMTIIARGDDRVLEQITKQLNKLIDVIKVRDLEPAATVKRELCMVKVHAPSESERSEIIQYTNIFRGRIVDVSPDALTVEVTGDSEKIDAFLELLRNFGIKELARTGPTAMSRGSRTM”, the “soluble on expression in E. coli” value was “not soluble”.
For “MGSDKIHHHHHHMADAETIRSYDQLAREQAAFQRHLQPTAIYRLVETFFHPGRPTIDIGSGSGRDVAWLNQHGYQAIGLEPSAGMIAEARAAYAGIEIRQGALPDLAGIADASFDNVLCVAVLMHLPAAELIGAVINLARILRPGGRLIVSYRTPPPEGERAHDGRLYTVIPPARLMLLLESSGLQILFSEDLPDPHRPSIRWFNMVAEKSDRDVSRGLERVGSVLAHDRKTATYKLALLRALCIIARNAFNLVEWSSDVVYVLLRAIATQWLIFYWPLLTSSEFIAQIRGEHPLSPKPIAFRPAITSLAKQLGGAAGLYNVLRILEEDPHRYDDILKLIANTIRKGPVTYSGSIHSPIFSYRPGKSDTFGWVAVPIDIWLDICRFNHWIEDSIVLRWAYLTDELNRTADPGRYLSLLVAKPLHERDTQEVRQALNRSPELFCVWTGQRLGHGYEVDHVIPYSVWGNNDLWNLLPAHPRINQTKRDALPARSILLARREAIIDYWQRYAQIDVFQPRFAVQIHRALGCNLRHADWPKLAFAGLEEVVERTAIVRGLPRWSP”, the “soluble on expression in E. coli” value was “not soluble”.
